Test results from US20260209362A1 (VIB VZW, published 2026).

T1: mouse IL-12Rβ2 expressed on cells (mouse, UniProt P97378 24-874)
T1 construct: HEK293T cells, stably transduced (cDNA NM_008354); also called mIL-12RB2
T1 sequence: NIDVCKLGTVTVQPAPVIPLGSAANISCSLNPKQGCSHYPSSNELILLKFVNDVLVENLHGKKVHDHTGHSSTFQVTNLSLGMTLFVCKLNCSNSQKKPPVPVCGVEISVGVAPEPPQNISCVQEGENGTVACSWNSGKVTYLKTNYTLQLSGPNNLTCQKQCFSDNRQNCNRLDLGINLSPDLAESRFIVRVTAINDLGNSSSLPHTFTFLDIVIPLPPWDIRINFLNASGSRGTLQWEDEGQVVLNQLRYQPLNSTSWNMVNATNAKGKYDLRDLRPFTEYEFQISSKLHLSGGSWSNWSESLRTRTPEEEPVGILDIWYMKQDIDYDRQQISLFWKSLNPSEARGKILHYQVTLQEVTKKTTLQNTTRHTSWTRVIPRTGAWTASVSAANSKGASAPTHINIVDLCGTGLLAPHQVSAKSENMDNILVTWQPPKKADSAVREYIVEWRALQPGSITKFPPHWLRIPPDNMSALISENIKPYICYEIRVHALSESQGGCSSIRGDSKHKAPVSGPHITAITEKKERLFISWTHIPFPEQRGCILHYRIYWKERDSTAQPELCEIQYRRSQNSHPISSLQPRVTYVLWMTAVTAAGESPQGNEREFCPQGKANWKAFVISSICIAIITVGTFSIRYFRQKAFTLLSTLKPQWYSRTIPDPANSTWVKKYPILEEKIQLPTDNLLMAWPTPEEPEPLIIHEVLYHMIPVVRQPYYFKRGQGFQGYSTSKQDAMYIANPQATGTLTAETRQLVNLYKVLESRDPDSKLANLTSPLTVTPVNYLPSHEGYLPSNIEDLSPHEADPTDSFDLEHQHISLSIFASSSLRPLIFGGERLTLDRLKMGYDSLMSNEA


These binders were tested against T1, mouse IL-12Rβ2 expressed on cells (assay: flow cytometry, P.E. VHH on HEK293T cells stably expressing mIL-12RB2).

Binder | % cells bound | dMFI
anti-IL-12Rβ2 VHH clone 2CRMS29 (VHH, not shown: small tags and cut ends, tested as periplasmic extract; also called 20521) VHH: QVQLQESGGGLVQAGGPLRLSCAASGRTFSGSAMGWFRQAPGKEREFVAAITWVGGFTYYADSVKGRFTISRDNAKNTVYLQMNNLSPEDTAVYSCAAQAYHKSGYYYPPLYDYWGQGTQVTVSS | 8.42% | 58
anti-IL-12Rβ2 VHH clone 3CAHM40 (VHH, not shown: small tags and cut ends, tested as periplasmic extract) VHH: QVQLQESGGGSVQAGGSLRLSCAVSGRTVSDYAMGWFRQAPGKEREFVAAMSSSETTVYPNSMKGRITISRDNAKNAVYLQLNALKPEDTAVYYCSMGPIATFQGLARQNEYHYWGQGTQVTVSS | 1.97% | -1.8
anti-IL-12Rβ2 VHH clone 2CAM71 (VHH, not shown: small tags and cut ends, tested as periplasmic extract) VHH: QVQLQESGGGLVQAGGSLRLSCAASGRTLSNSVMGWFRQAPGKEREFVAALMWSAGSEFYTDSVKGRFSISGDGAKNTVYLQMNSLKAEDTAVYYCAAKNPPHRWSDIGKSPHYEYWGQGTQVTVSS | 58.3% | 322
anti-IL-12Rβ2 VHH clone 2CAM39 (VHH, not shown: small tags and cut ends, tested as periplasmic extract; also called 20482) VHH: QVQLQESGGGLVQAGGSLRLSCAASGRTFSTYAMGWFRQAPGKEREFVAAISWSGGSTYYADSVKGRFTISRDNAKNTGYLQMNSLKPEDTAVYVCAADAEDPILYGSSWNNRRKEYDYWGQGTQVTVSS | 48.7% | 255
anti-IL-12Rβ2 VHH clone 2CRM42 (VHH, not shown: small tags and cut ends, tested as periplasmic extract; also called 20449) VHH: QVQLQESGGGLVQPGESLRLSCQASGRTFSNYRMGWFRQAPGKEREFVAGINWDGGHTYYTDSVKGRFTISRDNAKNTVYLQMNSLKPEDTAVYQCAVRVREYGSSRYEDQFDYWGQGTQVTVSS | 2.93% | 22
anti-IL-12Rβ2 VHH clone 2CAM18 (VHH, tested as periplasmic extract; also called 20475) VHH: QVQLQESGGGLVQVGDSLKLSCVASGTTFSTHVMAWYRQAPGKQREWVASIDSAGTTNYKDAVKGRFTISRDNVKRTVYLQMNNLKPEDSAVYLCSIPSRNAWGQGTQVTVSS | 3.19% | 13.6
anti-IL-12Rβ2 VHH clone 2CAM45 (VHH, not shown: small tags and cut ends, tested as periplasmic extract; also called 20485) VHH: QVQLQESGGGLVQAGGSLRLSCAASGFTFDDYAIGWFRQAPGKEREGISCISSSDYGTYYAGSVKGRFTISSDNAKNTVYLQMNSLKPEDTAVYYCAAEAISEYDCLGINYGMDYWGKGTQVTVSS | 6.77% | 51
anti-IL-12Rβ2 VHH clone 2CAM88 (VHH, not shown: small tags and cut ends, tested as periplasmic extract) VHH: QVQLQESGGGLVPPGDSLRLSCAASGRTFSSYTMGWFRQAPGKEREFVARISQDGGSTYYADSMKGRFTVARDNAKNTVYLQMNSLKPEDTAVYYCAADMIKWGLRVGVDSFKYWGQGTQVTVSS | 14.8% | 93
anti-IL-12Rβ2 VHH clone 2CRM83 (VHH, not shown: small tags and cut ends, tested as periplasmic extract; also called 20451) VHH: QVQLQESGGGLVQPGGSLRLSCAASGFTFSAYAMSWVRQAPGKGLEWVSSISSTGTNPNYADSVKGRFTISRDNAKNTLYLQMNSLKPEDTAVYYCAEAYRNYSPPGQGTQVTVSS | 24.9% | 122
anti-IL-12Rβ2 VHH clone 2CAM67 (VHH, not shown: small tags and cut ends, tested as periplasmic extract; also called 20494) VHH: QVQLQESGGGEVQAGGSLRLSCVASGRTFSVYTTGWFRQAPGKEREFVAGMSGTRTYYADSVKGRFTISRDNAKNTVYLQMNSLKPDDTAVYYCAERRYGGPSLVWDEYDYRGQGTQVTVSS | 13.5% | 90
anti-IL-12Rβ2 VHH clone 2CAM62 (VHH, not shown: small tags and cut ends, tested as periplasmic extract; also called 20493) VHH: QVQLQESGGGLVQAEGSLRLSCVASGRTFSSYGMGWFRQAPGKEREFVTGISSAGSWIGDITSYADSVKGRFTISRDNAKNILYLQMNSLKPEDTAVYYCAAAYHGSRYYVGSTANEYTTWGQGTQVTVSS | 11.2% | 70
anti-IL-12Rβ2 VHH clone 2CAMS29 (VHH, not shown: small tags and cut ends, tested as periplasmic extract; also called 20534) VHH: QVQLQESGGGLVQAGGSLRLSCAASGLTSSTYVIGWFRQAPGKEREFVAAIMLSGGTTIYADSLKGRCTIYKDNAKNTVYLQMNSLKLEDTAVYYCASGLIYRYSDFPRSQKYNFWGQGTQVTVSS | 14.5% | 99
anti-IL-12Rβ2 VHH clone 3CAM10 (VHH, not shown: small tags and cut ends, tested as periplasmic extract; also called 20507) VHH: QVQLQESGGGLVQAGGSLRLSCAASGRTFSDYPMAWFRQAPGKEREFVAGISNGGTAYYADSVKGRFTISRDNTRNTVYLQMNRLKVEDTAVYYCAAVHLLSNLRGADPHEADYWGQGTQVTVSS | 41.7% | 212

Continued, values first:

% cells bound | dMFI | Binder
1.7% | 3.5 | anti-IL-12Rβ2 VHH clone 3CRHM85 (VHH, not shown: small tags and cut ends, tested as periplasmic extract; also called 21061) VHH: QVQLQESGGGLVQPGGSLRLSCAASRRTFSKHAMAWFRQAPGKEREFVAVVRWSGIITYYADSVKGRFTISRDDAKNTVYLQMDSLKPEDTAVYYCAAGDYRGNGYYVPGMYDYWGQGTQVTVSS
2.2% | 4.8 | anti-IL-12Rβ2 VHH clone 3CRHM12 (VHH, not shown: small tags and cut ends, tested as periplasmic extract) VHH: QVQLQESGGGSVQAGGSLRLSCAVSGRTVSDYAMGWFRQAPGKEREFVAAMSSSETTVYPNSVKGRITISRDNAKNAVYLQMNALKPEDTAVYYCSMGPIVTFQGLARQNEYHYWGQGTQVTVSS
6.74% | 51 | anti-IL-12Rβ2 VHH clone 3CRM95 (VHH, not shown: small tags and cut ends, tested as periplasmic extract; also called 20465) VHH: QVQLQESGGGLVQAGDFLRLSCVFSGGTFGDYSMGWFRQAPGKEREFVAAIRWSGDSTQYAEAVKGRFTISRDNAKSTVYLQMSSLKPEDTAVYYCAADPSYYIGPNHTPSRYRDWGQGTQVTVSS
37.8% | 181 | anti-IL-12Rβ2 VHH clone 3CAM11 (VHH, not shown: small tags and cut ends, tested as periplasmic extract; also called 20508) VHH: QVQLQESGGGLVQAGGSLRLSCAASGRNLSTYAMGWIRQAPGKEREFVAAISWAGSTTYYADSVKGRFIISRDNAKNTLNLQMNSLKPEDTAVYYCAAPPYVTTTYYATPPSDIRDYHYWGQGTQVTVSS
29% | 151 | anti-IL-12Rβ2 VHH clone 3CAM36 (VHH, not shown: small tags and cut ends, tested as periplasmic extract; also called 20511) VHH: QVQLQESGGGLVQAGESLTLSCTASGRTFSSYGMGWFRQAPGKERDFVAAISRDARYTDYADSVKGRFTISKDNAKNTAYLQMNSLNPEDTAVYFCAAAYTYSGSHYVTARSGDYNYWGQGTQVTVSS
2.83% | 7.4 | anti-IL-12Rβ2 VHH clone 3CRHM20 (VHH, not shown: small tags and cut ends, tested as periplasmic extract; also called 21055) VHH: QVQLQESGGGLVQAGGSLRLSCAASGRTFSKSTMGWFRQTPGKEREFVAAITWTDTEVYANSVKDRFTISRDNAKNTFYLQMHSLKLEDTAVYYCAGDRYGSSRDSVFSSPTNYPYWGQGTQVTVSS
18.3% | 110 | anti-IL-12Rβ2 VHH clone 3CRM45 (VHH, not shown: small tags and cut ends, tested as periplasmic extract; also called 20458) VHH: QVQLQESGGGLVQAGGSLRLSCTASGSIFAIDDMYWYRQAPGKEREFVAYITATNSANYLDSVNGRFTISRDNAKNSVYLQMNSLKPEDTAVYYCNAKQIVGFQIDEYWGQGTQVTVSS
